Test results from patent publication US7285395B2, “Stearoyl-CoA desaturase 4 gene” (Wisconsin Alumni Research Foundation, priority 2004, dated 2007).

Tested on: SCD
Test: SCD enzyme activity in heart microsomes of leptin-treated ob/ob mice
Assay type: in vivo, mouse
Details: leptin 12 days, [1-14C]stearoyl-CoA substrate, elevated 3-fold in untreated ob/ob
Description: A, SCD activity: Microsomes were prepared from hearts of PBS-treated, ob/ob, ob/ob pair-fed (PF), and leptin-treated (ob/ob-Leptin) mice, and SCD enzyme activity was determined by measuring the incorporation of radioactivity in oleoyl-CoA using [1-^14C]stearoyl-CoA as a substrate. The reaction products were separated by TLC, and the radioactivity was quantitated. Each value represents the mean±S.E. (n=4). B, Levels of monounsaturated fatty acids in the hearts of ob/ob mice: Total fatty acids were extracted from heart of ob/ob mice treated with either leptin or PBS and wild type controls quantitated by GLC as described in the example below. *, p<0.05 versus wt-PBS; #,p<0.05 versus ob/ob-PBS. C, Total RNA was prepared from hearts of PBS or leptin-treated ob/ob mice and used to measure SCD1, SCD2, and SCD4 mRNA levels by quantitative RT-PCR analysis. The fold change relative to that of wild type was calculated after correction for the levels of cyclophilin used as a standard. Each value represents the mean±S.E. (n=4).
Subcutaneous Leptin Treatment—ob/ob mice were individually caged and allowed to acclimate for a number of days prior to the start of the experiment. […] Body mass and food intake were measured daily. […]

B1: leptin: recombinant mouse leptin (Amgen, Thousand Oaks, Calif.) (protein, UniProt P41160 22-167, looked up)
Leptin: VPIQKVQDDTKTLIKTIVTRINDISHTQSVSAKQRVTGLDFIPGLHPILSLSKMDQTLAVYQQVLTSLPSQNVLQIANDLENLRDLLHLLAFSKSCSLPQTSGLQKPESLDGVLEASLYSTEVVALSRLQGSLQDILQQLDVSPEC
- SCD activity in heart: completely normalized to wild type levels
